According to patent US20250066490A1, “ANTI-CD70 ANTIBODIES, CONJUGATES THEREOF AND METHODS OF USING THE SAME” (ProfoundBio US Co., priority 2021, published 2025):

T1: CD70 ECD (Homo sapiens, UniProt P32970)
T1 sequence (P32970 39-193 limits assumed): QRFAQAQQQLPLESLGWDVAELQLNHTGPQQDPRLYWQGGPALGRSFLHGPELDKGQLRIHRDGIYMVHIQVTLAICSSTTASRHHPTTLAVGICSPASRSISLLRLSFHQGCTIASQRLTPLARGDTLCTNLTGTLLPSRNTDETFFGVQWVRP


Legend:
[1] = tested on: 786-O cells; experiment: Internalization by FACS immune-fluorescence staining, 786-O; type: cell-based, human; details: based on the cell binding affinity
Description: (§1) Briefly, 2×10^5 cells were harvested from a tissue culture flask by treatment with 0.25% Trypsin/EDTA and then incubated with 10 μg/ml of the lead antibodies or control antibodies in FACS buffer (1×PBS with 0.1% BSA) for 30 mins at 4° C. The cells were washed at 4° C. to remove unbound antibodies and kept on ice or shifted to 37° C. At the set time points (0 h, 4 h, 24 h), cells were incubated with PE-conjugated anti human Fc (Abcam, Ab98596) for 30 mins at 4° C. and then analyzed by flow cytometry. The internalization ratio was calculated by subtracting the 37° C. MFI from the 4° C. MFI, and then compared with 4° C. MFI.
(§2) Four cell lines ([…]), Caki-1, Raji, MCF-7) were utilized in the internalization assay. Target (CD70) copy numbers were determined via the QIFIKIT (DAKO, K0078). Briefly, cells were labeled with a primary mouse monoclonal antibody against CD70. Cells, Set-up beads, Calibration beads (from the kit) were then labeled in parallel with a fluorescein-conjugated anti-mouse secondary antibody. The fluorescence is correlated with the number of bound primary antibody molecules on the cells and on the beads. Samples were subsequently analyzed on the flow cytometer and copy number determined based on the calibration curve (Table 11). For internalization assay, 3×10^5 cells were incubated at 4° C. for 30 min with 10 µg/ml 2E7 in FACS buffer (1×PBS containing 0.1% BSA). Cells were washed at 4° C. to remove unbound material and kept on ice or shifted to 37° C. for different lengths of time. At progressive timepoints ([…], 0.5, 1, 2, 3, 4 hr) cells were stained with PE-conjugated anti-human Fc for 30 min at 4° C. and analyzed by flow cytometry. Internalization rate were calculated by subtracting the mean fluorescence intensity (MFI) of cell surface-bound antibody at 37° C. at each time point from the MFI of cell surface-bound antibody at 4° C. at time 0, then divided by the MFI of the cell surface-bound antibody at 4° C. at time 0.

[2] = tested on: 786-O, Caki-1, U251 and DBTRG-05MG cells; experiment: Antibody binding by flow cytometry, statements across all four tumor cell lines; set-up: species or system human; details: four cell lines
Description: The lead antibodies were tested for binding to renal carcinoma cells and glioblastoma cells expressing CD70 on the cell surface by flow cytometry. Cell lines 786-O (ATCC® CRL-1932™, provided by COBIOER), Caki-1 (ATCC® HTB-46™, provided by COBIOER), U251 and DBTRG-05MG (ATCC® CRL-2020™, provided by COBIOER) were each tested for antibody binding. 786-O cells were cultured with RPMI 1640 medium (Gibco, Cat #11875093) containing of 10% FBS (Gibco, Cat #10099141) while Caki-1 cells were cultured with McCoy's 5a Modified medium (Gibco, Cat #16600082) containing 10% FBS. U251 cells were cultured with MEM medium containing of 10% FBS and 1% NEAA+1 mM sodium pyruvate. DBTRG-05MG cells were cultured with DMEM medium (Gibco, Cat #C11995500BT) containing of 10% FBS. Each of the lead antibodies and the controls were incubated for 30 mins with the different cell lines (3×10^5 cells per well) in 0.2 ml FACS buffer (1×PBS with 0.1% BSA) at 4° C. Then, the cells were pelleted, washed, and incubated at 4° C. for 30 mins with 100 μl of 1:200 diluted PE-conjugated anti human Fc (Abcam, Ab98596) in FACS buffer. The cells were pelleted again, washed with PBS, resuspended in FACS buffer and analyzed by flow cytometer (Beckman, CytoFLEX).

[3] = Hydrophobic interaction chromatography (HIC); type: physicochemical; details: full IgG; for Retention time: hydrophobicity by HIC
Description: Antibodies were purified from cleared cell culture supernatants using Protein A chromatography (Protein A resin slurry, 4.5 mL, Bogen, Cat #18-0010-02). Briefly, supernatants were prepared for affinity chromatography and loaded onto the columns and allowed to flow completely through the resin. The columns were washed with binding buffer containing 0.15M NaCl and 0.2M PB, PH7.0. Antibody was eluted with elution buffer containing 0.15M NaCl, 0.1M Glycine and 0.2M PB, PH 3.0. Fractions were collected and neutralized by the addition of 1/10 volume of 1M Tris, PH9.0. The fractions were dialyzed for 2 hours against 1×PBS. Purified antibody was quantified by absorbance at A280. Samples from each step of the protein A chromatography were applied onto 12% SDS-PAGE gels for reduced and non-reduced electrophoresis. The hydrophobicity was assessed with hydrophobic interaction chromatography (HIC) on a TSK gel Butyl-NPR, 4.6×100 mm with Butyl-NPR (Tosoh corporation) using a Waters HPLC 2695 system.

[4] = tested on: Caki-1 cells; experiment: Internalization by FACS immune-fluorescence staining, Caki-1; type: cell-based, human; details: Caki-1, based on the cell binding affinity
Description: as §1, §2

[5] = target: T1, CD70 ECD; experiment: Biacore affinity measurement on immobilized CD70 ECD; type: binding; details: 25° C., CD70 immobilized
Description: The immobilization of antigen CD70 ECD was performed at 25° C. with HBS-EP as the running buffer. Sensor chip surface of flow cells 1, 4 were activated by freshly mixed 50 mmol/L N-Hydroxy succinimide (NHS) and 200 mmol/L 1-ethyl-3-(3-dimethylaminopropyl) carbodiimide hydrochloride (EDC) for 420s (10 μL/min). Afterwards, CD70 antigen diluted in 10 mmol/L NaAC (pH 4.5) was injected into flow cell 4 to achieve conjugation of the appropriate Response Unit, while flow cell 1 was set as a blank. After the amine coupling reaction, the remaining active coupling sites on chip surface were blocked by 420s injection of 1 mol/L ethanolamine hydrochloride.
The assay was performed at 25° C. and the running buffer was HBS-EP. Diluted antibodies were injected over the surface of flow cells 1 and 4 during the association phase, followed by injecting running buffer as the dissociation phase. All the data were processed using Biacore T200 Evaluation software version 3.1. Flow cell 1 and a blank injection of buffer in each cycle were used as a double reference for Response Units subtraction. Kinetic data of the interaction between the antibodies and CD70 antigen were obtained through affinity measurement.

[6] = tested on: cynomolgus CD70 recombinant protein; experiment: Antibody binding ELISA, cynomolgus CD70; details: full IgG, FIG. 3
Description: The binding specificity of the CD70 antibodies was tested by ELISA according to a standard protocol. Briefly, 96-well micro-plates were coated with 2 μg/ml of human or cynomolgus CD70 recombinant protein in PBS at 100 μl per well and incubated overnight at 4° C. The plates were washed twice with TBS+0.5% Tween20. 200 μL of blocking buffer (2% BSA in PBS) was added to each well, and the plates were incubated at 37° C. for 2 hours. The plates were washed using the wash buffer mentioned above. Serially diluted antibodies were added to the ELISA plates using 100 μl per well, and the plates were incubated for 1 hour at room temperature. Then plates were washed 3 times. HRP conjugated anti-human Fc antibody solution (Sigma, I18885-2ML, diluted with blocking buffer) was added to the plates using 100 μl per well. The plates were incubated at room temperature for 1 hour and then washed 3 times. Then the TMB solution was added to plates using 100 μl per well and the plates were placed at RT for 5-15 mins. Then the stop solution (2M H2SO4) was added using 50 μl per well. The absorbance was measured at A450 and A630.

| Rmax (RU) [5] | ka [5] | kd [5] | Molecule | absolute amount of antibody internalized into cell vs parent antibody 69A7 [1] | binding ability to the cell lines compared with antibody 69A7 [2] | hydrophobicity compared with the parent antibody 69A7 ([3]; HIC) | Retention time [3] | absolute amount of antibody internalized into cell vs parent antibody 69A7 [4] | cross binding activity to the cyno-antigen [6] |
| --- | --- | --- | --- | --- | --- | --- | --- | --- | --- |
| 38.81 RU | 25600 M⁻¹ s⁻¹ | 0.00112 s⁻¹ | 1H8: anti-CD70 antibody clone, VH SEQ 5 and VL SEQ 6; scFv and full human IgG1/kappa (antibody, V domains shown) VH: QVQLQESGPGLVKPSETLSLTCTVSGGSVSSDYYYWSWIRQPPGKGLEWLGYIYYSGSTNYNPSLKSRVTISVDTSKNQFSLKLRSVTTADTAVYYCARGDGDFMGVCFDYWGQGTLVTVSS VL: EIVLTQSPATLSLSPGERATLSCRASQSVSSYLAWYQQKPGQAPRLLIFDASNRATGIPARFSGSGSGTDFTLTISSLEPEDFAVYYCQQRSNWPLTFGGGTKVEIK | higher absolute amount of antibody internalized into cell than the parent antibody 69A7 | slightly higher binding ability to the cell lines than that of antibody 69A7 | slightly more hydrophobic than the parent antibody 69A7 | 10.24 min | higher absolute amount of antibody internalized into cell than the parent antibody 69A7 | better cross binding activity to the cyno-antigen than antibody 69A7 |
| 38.83 RU | 11700 M⁻¹ s⁻¹ | 0.00105 s⁻¹ | 2D2: anti-CD70 antibody clone, VH SEQ 9 and VL SEQ 10; scFv and full human IgG1/kappa (antibody, V domains shown, left off: another chain or arm of the molecule; large carriers; small tags and cut ends, scFv and full human IgG1/kappa) VH: QVQLQESGPGLVKPSETLSLTCTVSGGSVSSDYYYWSWIRQPPGKGLEWLGYIYYSGSTNYNPSLKSRVTISVDTSKNQFSLKLRSVTTADTAVYYCARGDGDYGGNCFDYWGQGTLVTVSS VL: EIVLTQSPATLSLSPGERATLSCRASQSVSSYLAWYQQKPGQAPRLLIFDASNRATGIPARFSGSGSGTDFTLTISSLEPEDFAVYYCQQRLKFPLTFGGGTKVEIK | higher absolute amount of antibody internalized into cell than the parent antibody 69A7 | slightly higher binding ability to the cell lines than that of antibody 69A7 | – | 8.81 min | higher absolute amount of antibody internalized into cell than the parent antibody 69A7 | better cross binding activity to the cyno-antigen than antibody 69A7 |
